Data as given in PMC4075454.

What was measured:
WDR5 [1] = target: WDR5 (UniProt P61964); assay: biotin-peptide streptavidin pull-down, anti-GST blot; settings: reference: unmodified H3 peptide; sites T11
WDR5 [2] = target: WDR5 (UniProt P61964); assay: peptide pull-down, silver stain, MALDI-TOF identification; settings: reference: unmodified H3 peptide; sites T11

binding against the reference (WDR5 [1]): stronger | binding against the reference (WDR5 [2]): stronger
Substance: histone H3 (synthetic tail peptides) 1-21 (from UniProt P68431) H3T11P peptide
